Experimental data reported in patent EP4628892A1 (Korea Research Institute of Bioscience and Biotechnology, dated 2025).

T1: hNgR1-his (human, UniProt Q9BZR6 27-447, limits assumed)
T1 construct: Soluble antigen flowed over antibodies captured on Protein A chips; also called antigen protein (hNgR1-his); the antigen; not shown: histidine tag
T1 sequence (looked up): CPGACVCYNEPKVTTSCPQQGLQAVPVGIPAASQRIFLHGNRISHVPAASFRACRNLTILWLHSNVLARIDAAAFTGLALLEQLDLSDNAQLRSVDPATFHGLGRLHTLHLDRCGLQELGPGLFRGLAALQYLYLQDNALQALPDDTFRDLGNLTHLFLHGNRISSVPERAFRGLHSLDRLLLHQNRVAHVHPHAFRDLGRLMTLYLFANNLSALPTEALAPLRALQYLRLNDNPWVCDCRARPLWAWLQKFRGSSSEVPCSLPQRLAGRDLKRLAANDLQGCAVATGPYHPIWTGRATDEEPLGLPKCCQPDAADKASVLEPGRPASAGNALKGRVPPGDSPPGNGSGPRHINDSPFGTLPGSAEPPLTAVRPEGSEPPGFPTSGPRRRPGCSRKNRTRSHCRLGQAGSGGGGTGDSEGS


molecular target: T1, hNgR1-his; experiment: SPR, Biacore T200; IgG1 captured on Protein A chip, hNgR1-his flowed at different concentrations

Binder	Kd
H6HE2L antibody (antibody, human IgG1, kappa, V domains shown, Optimized from CSA108) VH: QMQLVQSGGGLEQPGRSLRLSCVTSGFNFNDYAMHWVRQAPGKGLEWVSGISWNSGAIGYADSVKGRFTVSRDNSKNSLYLQMNSLRAEDTAVYYCARDYNYETSGYYHGFDNWGQGTLVTVSS VL: DIQMTQSPSSVSASVGDRVTITCRASQGISRWLSWYQQKPGKAPKLLIYAASNLQSGVPLRFSGSGSGTDFTLTINSLQPEDSATYYCQQTNNFPYTFGQGTKVEIKR	1.69 nM
CSA123 antibody (antibody, human IgG1, kappa, V domains shown, also called anti-NgR1 antibody CSA123) VH: QMQLVQSGAEVKKPGASVKVSCKVSGYTLSELSIHWVRQAPGKGLEWMGGFDPEDDETVYAQKFQGRVTLTDDTSTDTAYMELSSLRSEDTAVYYCARDLGYLTSGNYYDAFDIWGRGTMITVSS VL: DIQMTQSPSSVSASVGDRVTITCRASQDINRWLAWYQQKPGKAPKLLIYAASRLQSGVPLRFSGSGSGTDFTLTINSLQPEDSATYYCQQTNNFPRTFGQGTRLEIKR	31.5 nM
G8 antibody (antibody, human IgG1, kappa, V domains shown, Optimized from CSA123) VH: QMQLVQSGAEVKKPGASVKVSCKVSGYPLSELSIHWVRQAPGKGLEWMGGFDSEDDETVYAQKFQGRVTLTDDTSTDTAYMELSSLRSEDTAVYYCARDLGYLTSGNYYDAFGIWGRGTMITVSS VL: DIQMTQSPSSVSASVGDRVTITCRASQDINRWLAWYQQKPGKAPKLLIYAASRLQSGVPLRFSGSGSGTDFTLTINSLQPEDSATYYCQQTNNFPRTFGQGTRLEIKR	4.15 nM
S6 antibody (antibody, human IgG1, kappa, V domains shown, Optimized from CSA123) VH: QMQLVQSGAEVKKPGASVKVSCKVSGYTLSGLSIHWVRQAPGKGLEWMGGFDSEDDETVYAQKFQGRVTLTDDTSTDTAYMELSSLRSEDTAVYYCARDLGYLTSGNYYDAFDIWGRGTMITVSS VL: DIQMTQSPSSVSASVGDRVTITCRASQDINRWLAWYQQKPGKAPKLLIYAASRLQSGVPLRFSGSGSGTDFTLTINSLQPEDSATYYCQQTNNFPRTFGQGTRLEIKR	5.51 nM
S3 antibody (antibody, human IgG1, kappa, V domains shown, Optimized from CSA123) VH: QMQLVQSGAEVKKPGASVKVSCKVSGYTLSELSIHWVRQAPGKGLEWMGGFDPEDDETVYAQKFQGRVTLTDDTSTDTAYMELSSLRSEDTAVYYCARDLGYLTSGNYYNAFGIWGRGTMITVSS VL: DIQMTQSPSSVSASVGDRVTITCRASQDINRWLAWYQQKPGKAPKLLIYAASRLQSGVPLRFSGSGSGTDFTLTINSLQPEDSATYYCQQTNNFPRTFGQGTRLEIKR	5.84 nM

More lines, now with the values ahead:

Kd	Binder
0.194 nM	C1HE2E6 antibody (antibody, human IgG1, kappa, V domains shown, Optimized from CSA108) VH: QMQLVQSGGGLEQPGRSLRLSCVTSGFNFNDYAMHWVRQAPGKGLEWVSGISWNSGAIGYADSVKGRFTVSRDNSKNSLYLQMNSLRAEDTAVYYCARDYNYEISGYYYGFDNWGQGTLVTVSS VL: DIQMTQSPSSVSASVGDRVTITCRASQGISRWLSWYQQKPGKAPKLLIYAASNLQSGVPLRFSGSGFGTDFTLTINSLQPEDSATYYCQQTNNFPYTFGQGTKVEIKR
23.3 nM	CSA108 antibody (antibody, human IgG1, kappa, V domains shown, also called anti-NgR1 antibody CSA108) VH: QMQLVQSGGGLEQPGRSLRLSCVTSGFNFNDYAMHWVRQAPGKGLEWVSGISWNSGAIGYADSVKGRFTVSRDNSKNSLYLQMNSLRAEDTAVYYCARDYYYETSGYYYGFDNWGQGTLVTVSS VL: DIQMTQSPSSVSASVGDRVTITCRASQGISRWLAWYQQKPGKAPKLLIYAASNLQSGVPLRFSGSGSGTDFTLTINSLQPEDSATYYCQQTNNFPYTFGQGTKVEIKR
5.33 nM	D11 antibody (antibody, human IgG1, kappa, V domains shown, Optimized from CSA123) VH: QMQLVQSGAEVKKPGASVKVSCKVSGYTLSELSIHWVRQAPGKGLEWMGGFDSEDDETVYAQKFQGRVTLTDDTSTDTAYMELSSLRSEDTAVYYCARDLGYLTSGNYYDAFDFWGRGTMITVSS VL: DIQMTQSPSSVSASVGDRVTITCRASQDINRWLAWYQQKPGKAPKLLIYAASRLQSGVPLRFSGSGSGTDFTLTINSLQPEDSATYYCQQTNNFPRTFGQGTRLEIKR
